We go through 5 molecules from paper PMC5268383, “Inhibition of STAT3 by Anticancer Drug Bendamustine” (PLoS ONE, 2017).

Assay [1] deals with MDA-MB-468 cells and MDA-MB-453 cells. Also on record: method as in PMID 26010889. As to conditions: cited from earlier work.
Assay [2] has as its target T1, recombinant human STAT3 SH2 domain (Homo sapiens, UniProt P40763).
T1 construct: Full-length cDNAs were obtained from a human cDNA library by PCR; Avi-tag (biotinylated in BirA-BL21) (N); made in house; host or cells: Escherichia coli BirA-BL21
Kind of assay: AlphaScreen SH2 binding assay, STAT3. As for the experimental part: AlphaScreen assays were performed in a final reaction volume of 25 μL of the assay buffer, containing 10 mM HEPES-NaOH (pH 7.4), 50 mM NaCl, 1 mM EDTA (pH 8.0), 0.1% NP-40, and 10 ng/mL BSA in a 96-well microtiter plate at 25°C. The labeled Phospho-Tyr (pTyr) peptide probe was 5-carboxyfluorescein (FITC)-GpYLPQTV for STAT3, FITC-GpYDKPHVL for STAT1, and FITC-PSpYVNVQN for Grb2. A DMSO solution of BENDA was incubated with 50 nM of each SH2-containing protein for 15 min, 50 nM of the corresponding FITC-pTyr peptide was added, and the mixture was incubated for 90 min. Streptavidin-coated donor beads and anti-FITC acceptor beads were added and incubated for 90 min before the signals were measured with an Envision Xcite plate reader (PerkinElmer Life Sciences, Waltham, MA, USA).
For orientation: In Alpha technology, singlet oxygen from a donor bead excites a nearby acceptor bead.

Assay [3] addresses T2, cellular STAT3 in MDA-MB-468 cells (Homo sapiens, UniProt P40763).
T2 construct: endogenous in cells; host or cells: MDA-MB-468
Kind of assay: Pull-down assay using Bio-BENDA, anti-STAT3 immunoprecipitation. As to conditions: 50 μM Bio-BENDA, 4 h. The assay is classed as cell-based. Here is the method: MDA-MB-468 cells were treated with biotinylated BENDA (Bio-BENDA) in the presence or absence of an excess amount of free drugs for 4 h and then lysed in PhosphoSafe™ Extraction Reagent (Merck, Darmstadt, Germany). Lysate (200 μL) was precleared with a mixture of Protein G Plus/Protein A Agarose Suspension (EMD Millipore, Billerica, MA, USA) for 1 h at 4°C and protein A and G agarose were removed by centrifugation at 13,000 rpm for 10 min. The lysate (200 μL) was immunoprecipitated with STAT3 antibody (1 μL) overnight at 4°C on a shaker and the immunocomplex was captured by the addition of a Protein G Plus/Protein A Agarose Suspension (30 μL) slurry for 1 h at 4°C. Samples were washed five times with lysis buffer and then boiled four times in SDS-PAGE sample buffer and run on an SDS-PAGE gel. The protein was transferred to a nitrocellulose membrane. The membranes were blocked in 5% skim milk in TBS/0.1% Tween 20. They were then incubated with streptavidin-HRP diluted at 1:2000 in 1.5% skim milk in TBS (pH7.4)/0.1% Tween 20 overnight at 4°C. Immunoblots were developed by using a chemiluminescent substrate.

For assay [4], the target named is T3, cellular STAT1 in MDA-MB-468 cells (Homo sapiens, UniProt P42224).
T3 construct: endogenous in cells; host or cells: MDA-MB-468
Put plainly: Pull-down assay using Bio-BENDA, anti-STAT1 immunoprecipitation. The format is cell-based. As to conditions: 50 μM Bio-BENDA, 4 h.

Assay [5] concerns the target T4, recombinant human STAT3 (signal transducer and activator of transcription 3) (human, UniProt P40763 1-770, biotin (Avi-tag; expressed in BirA-BL21 cells induced with 50 μM biotin)).
T4 construct: human STAT3, full-length cDNA from a human cDNA library, cloned into modified pET-28a(+); also called rhSTAT3; wild-type rhSTAT3; source: E. coli BirA-BL21, purified (Ni Sepharose, dialysis); not shown: Avi-tag, N-terminal, kept
Kind of assay: AlphaScreen or HTRF; 50 nM SH2-containing protein pre-incubated 15 min with BENDA in DMSO, then 50 nM FITC-pTyr peptide 90 min; streptavidin-coated donor beads and anti-FITC acceptor beads 90 min; 10 mM HEPES-NaOH pH 7.4, 50 mM NaCl, 1 mM EDTA, 0.1% NP-40, 10 ng/mL BSA, 25°C. As to conditions: both partners purified.

The target in assay [6] is T5, mutant recombinant human STAT3, C712A (human, UniProt P40763 1-770, C712A, biotin (Avi-tag; expressed in BirA-BL21 cells induced with 50 μM biotin)).
T5 construct: human STAT3, full-length cDNA, single point mutation by inverse PCR, in modified pET-28a(+); Expression and purification are described for the wild type; also called Cys712 mutant; mutant STAT3 His-Avi-pET28a (+); source: E. coli BirA-BL21, purified (Ni Sepharose, dialysis); not shown: Avi-tag, N-terminal, kept
Kind of assay: AlphaScreen or HTRF; 375 nM mutant recombinant STAT3 incubated with 100 μM BENDA in DMSO for 30 min, then the AlphaScreen SH2 binding assay with the phosphotyrosine peptide. As to conditions: both partners purified.

The target of assay [7] is T6, mutant recombinant human STAT3, Cys542 to alanine (human, UniProt P40763 1-770, Cys542 to alanine, biotin (Avi-tag; expressed in BirA-BL21 cells induced with 50 μM biotin)).
T6 construct: human STAT3, full-length cDNA, single point mutation by inverse PCR, in modified pET-28a(+); Expression and purification are described for the wild type; also called Cys542 mutant; mutant STAT3 His-Avi-pET28a (+); source: E. coli BirA-BL21, purified (Ni Sepharose, dialysis); not shown: Avi-tag, N-terminal, kept
Described as above. As to conditions: both partners purified.

For assay [8], the target named is T7, mutant recombinant human STAT3, Cys468 to alanine (human, UniProt P40763 1-770, Cys468 to alanine, biotin (Avi-tag; expressed in BirA-BL21 cells induced with 50 μM biotin)).
T7 construct: human STAT3, full-length cDNA, single point mutation by inverse PCR, in modified pET-28a(+); Expression and purification are described for the wild type; also called Cys468 mutant; mutant STAT3 His-Avi-pET28a (+); source: E. coli BirA-BL21, purified (Ni Sepharose, dialysis); not shown: Avi-tag, N-terminal, kept
The description is as above. As to conditions: both partners purified.

Assay [9] has as its target T8, mutant recombinant human STAT3, Cys687 to alanine (human, UniProt P40763 1-770, Cys687 to alanine, biotin (Avi-tag; expressed in BirA-BL21 cells induced with 50 μM biotin)).
T8 construct: human STAT3, full-length cDNA, single point mutation by inverse PCR, in modified pET-28a(+); Expression and purification are described for the wild type; also called Cys687 mutant; mutant STAT3 His-Avi-pET28a (+); source: E. coli BirA-BL21, purified (Ni Sepharose, dialysis); not shown: Avi-tag, N-terminal, kept
The description is as above. As to conditions: both partners purified.

The target in assay [10] is T9, mutant recombinant human STAT3, C550A (human, UniProt P40763 1-770, C550A, biotin (Avi-tag; expressed in BirA-BL21 cells induced with 50 μM biotin)).
T9 construct: human STAT3, full-length cDNA, single point mutation by inverse PCR, in modified pET-28a(+); Expression and purification are described for the wild type; also called Cys550 mutant; mutant STAT3 His-Avi-pET28a (+); source: E. coli BirA-BL21, purified (Ni Sepharose, dialysis); not shown: Avi-tag, N-terminal, kept
The assay is described as above. As to conditions: both partners purified.

Where no end group is shown, it is not given here. [ ]: non-standard residue; d: D form. pY = N[C@@H](Cc1ccc(OP(=O)(O)O)cc1)C(=O)O

T6 sequence (P40763 other isoform, or with tags, fused parts or gaps Cys542 to alanine | Cys542 to alanine | mutant): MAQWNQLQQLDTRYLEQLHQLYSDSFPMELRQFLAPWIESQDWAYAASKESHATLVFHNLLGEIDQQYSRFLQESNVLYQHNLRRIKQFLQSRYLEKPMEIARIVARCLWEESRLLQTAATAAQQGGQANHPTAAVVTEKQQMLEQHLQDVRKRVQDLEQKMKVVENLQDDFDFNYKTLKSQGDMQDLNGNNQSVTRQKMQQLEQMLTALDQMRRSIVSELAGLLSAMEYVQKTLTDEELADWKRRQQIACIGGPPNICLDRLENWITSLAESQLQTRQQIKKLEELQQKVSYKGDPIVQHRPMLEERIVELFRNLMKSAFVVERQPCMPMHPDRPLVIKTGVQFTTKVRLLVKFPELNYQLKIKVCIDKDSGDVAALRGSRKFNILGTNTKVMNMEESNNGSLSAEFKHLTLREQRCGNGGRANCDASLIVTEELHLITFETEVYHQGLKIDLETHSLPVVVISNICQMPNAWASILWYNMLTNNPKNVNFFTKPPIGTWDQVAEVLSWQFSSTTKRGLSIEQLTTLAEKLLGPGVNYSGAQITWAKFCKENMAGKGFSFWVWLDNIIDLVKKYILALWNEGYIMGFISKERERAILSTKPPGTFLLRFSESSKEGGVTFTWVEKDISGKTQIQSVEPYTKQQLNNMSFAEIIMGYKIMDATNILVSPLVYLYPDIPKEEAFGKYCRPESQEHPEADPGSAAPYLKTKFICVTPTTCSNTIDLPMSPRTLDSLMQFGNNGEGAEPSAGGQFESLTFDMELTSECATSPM
T5 sequence (P40763 whole entry C712A): as the sequence (P40763 other isoform, or with tags, fused parts or gaps Cys542 to alanine | Cys542 to alanine | mutant) above, with A542C, C712A counted along it
T9 sequence (P40763 whole entry C550A): as the sequence (P40763 other isoform, or with tags, fused parts or gaps Cys542 to alanine | Cys542 to alanine | mutant) above, with A542C, C550A counted along it
T8 sequence (P40763 other isoform, or with tags, fused parts or gaps Cys687 to alanine | Cys687 to alanine | mutant): as the sequence (P40763 other isoform, or with tags, fused parts or gaps Cys542 to alanine | Cys542 to alanine | mutant) above, with A542C, C687A counted along it
T1 sequence (P40763 whole entry, the tested form may be a part): as the sequence (P40763 other isoform, or with tags, fused parts or gaps Cys542 to alanine | Cys542 to alanine | mutant) above, with A542C counted along it
T4 sequence (P40763 whole entry): as the sequence (P40763 other isoform, or with tags, fused parts or gaps Cys542 to alanine | Cys542 to alanine | mutant) above, with A542C counted along it
T3 sequence (P42224 whole entry): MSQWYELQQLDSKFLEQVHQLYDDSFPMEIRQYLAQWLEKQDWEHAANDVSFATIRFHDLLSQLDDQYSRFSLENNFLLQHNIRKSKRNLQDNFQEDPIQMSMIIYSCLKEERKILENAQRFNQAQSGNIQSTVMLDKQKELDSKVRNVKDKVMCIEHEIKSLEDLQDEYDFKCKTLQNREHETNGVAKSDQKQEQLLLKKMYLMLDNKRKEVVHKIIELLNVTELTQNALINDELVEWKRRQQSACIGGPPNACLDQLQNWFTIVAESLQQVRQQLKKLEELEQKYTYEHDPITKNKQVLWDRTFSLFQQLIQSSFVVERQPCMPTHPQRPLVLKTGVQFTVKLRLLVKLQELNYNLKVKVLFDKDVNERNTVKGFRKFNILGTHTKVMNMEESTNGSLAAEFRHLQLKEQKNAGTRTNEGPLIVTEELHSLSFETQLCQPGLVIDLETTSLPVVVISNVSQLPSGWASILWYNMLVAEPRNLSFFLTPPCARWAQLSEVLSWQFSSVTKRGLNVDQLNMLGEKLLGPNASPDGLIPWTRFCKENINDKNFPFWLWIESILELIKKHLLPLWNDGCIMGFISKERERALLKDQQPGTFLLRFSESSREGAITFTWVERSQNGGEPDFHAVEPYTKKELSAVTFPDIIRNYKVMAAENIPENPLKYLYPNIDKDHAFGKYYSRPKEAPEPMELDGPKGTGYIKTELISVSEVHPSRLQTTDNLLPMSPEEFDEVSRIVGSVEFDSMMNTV
T7 sequence (P40763 other isoform, or with tags, fused parts or gaps Cys468 to alanine | Cys468 to alanine | mutant): as the sequence (P40763 other isoform, or with tags, fused parts or gaps Cys542 to alanine | Cys542 to alanine | mutant) above, with C468A, A542C counted along it
T2 sequence (P40763 2-770 limits assumed): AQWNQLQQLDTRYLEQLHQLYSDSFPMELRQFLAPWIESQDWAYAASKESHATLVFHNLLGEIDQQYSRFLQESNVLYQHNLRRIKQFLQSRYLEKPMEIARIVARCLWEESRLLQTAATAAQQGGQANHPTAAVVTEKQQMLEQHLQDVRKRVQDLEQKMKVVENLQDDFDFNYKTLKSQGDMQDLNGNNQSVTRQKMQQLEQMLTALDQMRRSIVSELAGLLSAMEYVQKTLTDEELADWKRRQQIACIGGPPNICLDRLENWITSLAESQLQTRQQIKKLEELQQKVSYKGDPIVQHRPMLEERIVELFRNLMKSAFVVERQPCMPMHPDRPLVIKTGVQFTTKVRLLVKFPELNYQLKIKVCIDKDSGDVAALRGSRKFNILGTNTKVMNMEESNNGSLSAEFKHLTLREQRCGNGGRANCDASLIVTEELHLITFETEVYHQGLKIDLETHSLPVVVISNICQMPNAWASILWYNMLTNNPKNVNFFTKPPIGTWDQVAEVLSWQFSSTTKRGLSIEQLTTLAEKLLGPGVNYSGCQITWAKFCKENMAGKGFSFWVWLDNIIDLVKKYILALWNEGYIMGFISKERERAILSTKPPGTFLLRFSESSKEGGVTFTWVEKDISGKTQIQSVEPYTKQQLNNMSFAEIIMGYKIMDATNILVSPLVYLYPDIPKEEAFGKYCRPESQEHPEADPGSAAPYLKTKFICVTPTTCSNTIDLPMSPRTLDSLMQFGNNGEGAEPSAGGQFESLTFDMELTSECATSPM

With `O=[N+]([O-])c1ccc2c(c1)S(=O)(=O)C=C2` [Stattic], the “Growth inhibition of MDA-MB-468 versus MDA-MB-453 cells” value in assay [1] is on record as “inhibit the growth of MDA-MB-468 cells more than that of the MDA-MB-453 cells”.
The term IC50 denotes the point on the concentration scale where inhibition reaches its midpoint. On to `CCOC(=O)CCCc1nc2cc(N(CCCl)CCCl)ccc2n1C` [BM1EE, BENDA ethyl ester], for which the IC50 in [2] amounted to 6.1 µM.
Consider `Cn1c(CCCC(=O)OCCOCCOCCOCCNC(=O)CCC[C@@H]2SC[C@@H]3NC(=O)N[C@@H]32)nc2cc(N(CCCl)CCCl)ccc21` [Bio-BENDA, 13-Oxo-16-[(3aS,4S,6aR)-2-oxohexahydro-1H-thieno[3,4-d]imidazol-4-yl]-3,6,9-trioxa-12-azahexadecyl 4-{5-[bis(2-chloroethyl)amino]-1-methyl-1H-benzo[d]imidazol-2-yl}butanoate], for which the “Binding to cellular STAT3 (band by streptavidin-HRP after anti-STAT3 IP)” value in [3] is “the STAT3 band was observed”. Moreover, the “Binding to cellular STAT1 (band by streptavidin-HRP after anti-STAT1 IP)” value in assay [4] is “no band”.
With `C=C1C(=O)[C@]23C[C@H]1CC[C@H]2[C@@]12CO[C@]3(O)[C@@H](O)[C@@H]1C(C)(C)C=CC2=O` [Eriocalyxin B], in assay [1], the “Growth inhibition of MDA-MB-468 versus MDA-MB-453 cells” value is given as “inhibit the growth of MDA-MB-468 cells more than that of the MDA-MB-453 cells”.

B1: 5-carboxyfluorescein (FITC)-GpYLPQTV, labeled Phospho-Tyr peptide probe for STAT3 (peptide)
peptide: G[pY]LPQTV
modifications: not fully specified (N-terminus)
notes: the leading G is not the natural residue there; also called phosphotyrosine peptide; pTyr peptide; source: synthetic peptide (NippiBiomatrix Laboratory)
As to B1, the binding result in assay [5], in assay [6], in [7], in [8], in assay [9] and in assay [10] was “binds” throughout.
